The values below come from patent US20210179716A1 (Pfizer, published 2021).

Where a chain is given by its changes, count along the chain named. Where only a bound is given, the exact number is not on record here.

The labels stand for the following.
B1: P1A11_D99E (antibody, V domains shown)
VH: QVQLVQSGAEVKKPGSSVKVSCKASGYTFTNYAISWVRQAPGQGLEWMGGISPLFGTANYAQKFQGRVTITADESTSTAYMELSSLRSEDTAVYYCAREGGRSSDVGWYVGAMDVWGQGTLVTVSS
VL: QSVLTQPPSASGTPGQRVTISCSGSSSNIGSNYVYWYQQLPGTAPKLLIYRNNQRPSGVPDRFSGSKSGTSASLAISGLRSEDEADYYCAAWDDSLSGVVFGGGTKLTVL
notes: Variant of P01A11
B2: P1A11_T30S (antibody, V domains shown)
VH: B1 VH with T30S, E99D
VL: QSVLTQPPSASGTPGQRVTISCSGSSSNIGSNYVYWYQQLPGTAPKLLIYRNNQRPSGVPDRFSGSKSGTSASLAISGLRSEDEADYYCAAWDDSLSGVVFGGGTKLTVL
notes: Variant of P01A11
B3: P01A11_Y27G_N31S_L54I_G100A_M113L (antibody, V domains shown)
VH: B1 VH with Y27G, N31S, L54I, E99D, G100A, M113L
VL: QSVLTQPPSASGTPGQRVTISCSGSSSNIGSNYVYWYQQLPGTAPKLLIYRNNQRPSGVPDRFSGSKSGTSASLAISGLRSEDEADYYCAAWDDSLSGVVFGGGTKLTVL
notes: Variant of P01A11
B4: P01A11_P53G_D114E (antibody, V domains shown)
VH: B1 VH with P53G, E99D, D114E
VL: not shown
notes: Variant of P01A11
B5: P01A11_L54A_S104E (antibody, V domains shown)
VH: B1 VH with L54A, E99D, S104E
VL: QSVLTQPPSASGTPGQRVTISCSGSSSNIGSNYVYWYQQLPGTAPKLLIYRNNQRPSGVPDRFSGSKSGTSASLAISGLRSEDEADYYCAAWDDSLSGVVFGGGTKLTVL
notes: Variant of P01A11
B6: P01A11_Y27G_L54I_G100A_M113L (antibody, V domains shown)
VH: B1 VH with Y27G, L54I, E99D, G100A, M113L
VL: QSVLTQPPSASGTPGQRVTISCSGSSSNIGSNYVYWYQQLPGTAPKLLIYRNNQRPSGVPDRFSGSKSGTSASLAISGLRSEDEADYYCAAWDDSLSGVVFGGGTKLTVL
notes: Variant of P01A11
B7: P01A11_G100V (antibody, V domains shown)
VH: B1 VH with E99D, G100V
VL: not shown
notes: Variant of P01A11
B8: P1A11_M113L (antibody, V domains shown)
VH: B1 VH with E99D, M113L
VL: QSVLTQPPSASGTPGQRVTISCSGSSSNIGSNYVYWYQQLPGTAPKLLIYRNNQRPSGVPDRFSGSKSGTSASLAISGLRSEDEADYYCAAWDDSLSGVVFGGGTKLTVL
notes: Variant of P01A11
B9: P1A11_Y27G (antibody, V domains shown)
VH: B1 VH with Y27G, E99D
VL: not shown
notes: Variant of P01A11
B10: P1A11_L54I (antibody, V domains shown)
VH: B1 VH with L54I, E99D
VL: not shown
notes: Variant of P01A11
B11: P01A11_D105E (antibody, V domains shown)
VH: B1 VH with E99D, D105E
VL: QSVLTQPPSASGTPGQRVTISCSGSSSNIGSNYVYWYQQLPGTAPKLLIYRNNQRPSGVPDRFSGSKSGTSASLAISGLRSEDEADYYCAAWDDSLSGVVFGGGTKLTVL
notes: Variant of P01A11
B12: P1A11_F55L (antibody, V domains shown)
VH: B1 VH with F55L, E99D
VL: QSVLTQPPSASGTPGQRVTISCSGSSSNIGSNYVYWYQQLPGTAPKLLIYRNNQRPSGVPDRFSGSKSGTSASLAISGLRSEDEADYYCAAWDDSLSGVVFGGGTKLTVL
notes: Variant of P01A11
B13: P1A11_W108F (antibody, V domains shown)
VH: B1 VH with E99D, W108F
VL: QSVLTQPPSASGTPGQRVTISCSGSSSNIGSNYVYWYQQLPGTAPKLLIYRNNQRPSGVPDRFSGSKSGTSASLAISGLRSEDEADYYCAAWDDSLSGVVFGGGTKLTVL
notes: Variant of P01A11
B14: P1A11_W108Y (antibody, V domains shown)
VH: B1 VH with E99D, W108Y
VL: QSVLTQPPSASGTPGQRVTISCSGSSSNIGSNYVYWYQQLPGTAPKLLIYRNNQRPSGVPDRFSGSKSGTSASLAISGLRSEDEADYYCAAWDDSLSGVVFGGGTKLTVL
notes: Variant of P01A11
B15: P01A11_T30S_N31S_L54I_G100A_W108Y_M113L (antibody, V domains shown)
VH: B1 VH with T30S, N31S, L54I, E99D, G100A, W108Y, M113L
VL: not shown
notes: Variant of P01A11
B16: P01A11_T30S_N31S_L54I_G100A_M113L (antibody, V domains shown)
VH: B1 VH with T30S, N31S, L54I, E99D, G100A, M113L
VL: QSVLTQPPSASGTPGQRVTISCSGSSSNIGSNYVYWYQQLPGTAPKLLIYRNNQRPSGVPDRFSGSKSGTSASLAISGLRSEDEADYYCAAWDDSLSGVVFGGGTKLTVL
notes: Variant of P01A11
B17: P01A11_P53G (antibody, V domains shown)
VH: B1 VH with P53G, E99D
VL: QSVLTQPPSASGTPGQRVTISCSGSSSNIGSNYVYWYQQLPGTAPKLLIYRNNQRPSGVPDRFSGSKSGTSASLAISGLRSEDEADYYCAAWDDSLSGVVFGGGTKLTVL
notes: Variant of P01A11
B18: P1A11_S52I (antibody, V domains shown)
VH: B1 VH with S52I, E99D
VL: not shown
notes: Variant of P01A11
B19: P1A11_G100S (antibody, V domains shown)
VH: B1 VH with E99D, G100S
VL: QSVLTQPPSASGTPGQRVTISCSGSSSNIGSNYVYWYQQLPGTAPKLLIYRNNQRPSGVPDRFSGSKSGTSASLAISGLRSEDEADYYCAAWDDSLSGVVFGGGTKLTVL
notes: Variant of P01A11
B20: P1A11_N31S (antibody, V domains shown)
VH: B1 VH with N31S, E99D
VL: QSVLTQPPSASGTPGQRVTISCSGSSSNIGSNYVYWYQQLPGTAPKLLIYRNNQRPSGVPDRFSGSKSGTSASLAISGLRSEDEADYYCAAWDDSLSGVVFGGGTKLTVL
notes: Variant of P01A11
B21: P01A11_P53G_D105E (antibody, V domains shown)
VH: B1 VH with P53G, E99D, D105E
VL: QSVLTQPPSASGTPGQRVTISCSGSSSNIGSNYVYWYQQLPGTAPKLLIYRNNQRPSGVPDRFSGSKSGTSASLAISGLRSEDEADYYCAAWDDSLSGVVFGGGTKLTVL
notes: Variant of P01A11
B22: P01A11_Y27G_L54I_G100A_M113I (antibody, V domains shown)
VH: B1 VH with Y27G, L54I, E99D, G100A, M113I
VL: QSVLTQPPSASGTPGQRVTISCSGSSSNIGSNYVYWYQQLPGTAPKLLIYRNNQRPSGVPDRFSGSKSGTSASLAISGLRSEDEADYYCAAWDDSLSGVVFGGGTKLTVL
notes: Variant of P01A11
B23: P01A11_T30S_N31S_L54I_G100A_M113I (antibody, V domains shown)
VH: B1 VH with T30S, N31S, L54I, E99D, G100A, M113I
VL: not shown
notes: Variant of P01A11
B24: P01A11_T30S_N31S_L54I_G100A (antibody, V domains shown)
VH: B1 VH with T30S, N31S, L54I, E99D, G100A
VL: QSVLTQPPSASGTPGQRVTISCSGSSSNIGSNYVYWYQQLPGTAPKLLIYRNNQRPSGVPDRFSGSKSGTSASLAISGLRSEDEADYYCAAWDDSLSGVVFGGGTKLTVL
notes: Variant of P01A11
B25: P01A11_L54A_D114E (antibody, V domains shown)
VH: B1 VH with L54A, E99D, D114E
VL: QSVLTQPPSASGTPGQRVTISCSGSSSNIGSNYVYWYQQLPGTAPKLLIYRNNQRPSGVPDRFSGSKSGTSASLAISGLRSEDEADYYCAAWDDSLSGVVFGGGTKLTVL
notes: Variant of P01A11
B26: P01A11_L54A_R102A (antibody, V domains shown)
VH: B1 VH with L54A, E99D, R102A
VL: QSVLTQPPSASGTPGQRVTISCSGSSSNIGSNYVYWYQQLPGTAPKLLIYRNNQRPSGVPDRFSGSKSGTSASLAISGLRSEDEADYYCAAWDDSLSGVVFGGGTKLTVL
notes: Variant of P01A11
B27: P1A11_G100A (antibody, V domains shown)
VH: B1 VH with E99D, G100A
VL: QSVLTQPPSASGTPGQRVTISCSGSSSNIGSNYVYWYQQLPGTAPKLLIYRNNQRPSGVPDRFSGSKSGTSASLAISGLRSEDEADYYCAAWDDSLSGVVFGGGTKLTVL
notes: Variant of P01A11
B28: P1A11_M113I (antibody, V domains shown)
VH: B1 VH with E99D, M113I
VL: not shown
notes: Variant of P01A11
B29: P01A11_W108A (antibody, V domains shown)
VH: B1 VH with E99D, W108A
VL: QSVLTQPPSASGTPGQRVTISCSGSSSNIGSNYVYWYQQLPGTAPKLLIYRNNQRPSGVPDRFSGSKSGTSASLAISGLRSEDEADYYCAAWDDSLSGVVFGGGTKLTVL
notes: Variant of P01A11
B30: P01A11_Y27G_L54I_G100A (antibody, V domains shown)
VH: B1 VH with Y27G, L54I, E99D, G100A
VL: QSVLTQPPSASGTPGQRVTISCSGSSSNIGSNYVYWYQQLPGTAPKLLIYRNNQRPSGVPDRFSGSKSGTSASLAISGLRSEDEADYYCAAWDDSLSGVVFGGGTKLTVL
notes: Variant of P01A11
B31: P1A11_G100Q (antibody, V domains shown)
VH: B1 VH with E99D, G100Q
VL: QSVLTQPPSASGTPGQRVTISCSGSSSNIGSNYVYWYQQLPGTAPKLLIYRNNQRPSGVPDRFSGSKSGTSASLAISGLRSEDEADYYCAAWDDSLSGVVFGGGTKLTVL
notes: Variant of P01A11
B32: P06B05_D56E_G57E (antibody, V domains shown)
VH: EVQLVESGGGLVKPGGSLRLSCAASGFTFSNAWMNWVRQAPGKGLEWVGRIKTKAEEGTTDYAAPVKGRFTISRDDSKNTLYLQMNSLKTEDTAVYYCTTDPGSYWDSVYGGMDYWGQGTLVTVSS
VL: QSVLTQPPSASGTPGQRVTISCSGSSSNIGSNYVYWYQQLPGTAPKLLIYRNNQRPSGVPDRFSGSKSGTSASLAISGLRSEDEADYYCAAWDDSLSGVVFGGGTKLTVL
notes: Variant of P06B05
B33: P06B05_D61A_Y62A (antibody, V domains shown)
VH: B32 VH with E56D, E57G, D61A, Y62A
VL: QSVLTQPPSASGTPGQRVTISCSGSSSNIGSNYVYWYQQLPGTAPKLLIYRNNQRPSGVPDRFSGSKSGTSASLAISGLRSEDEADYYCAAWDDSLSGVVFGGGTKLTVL
notes: Variant of P06B05
B34: P06B05_D61A_Y62S (antibody, V domains shown)
VH: B32 VH with E56D, E57G, D61A, Y62S
VL: not shown
notes: Variant of P06B05
B35: P06B05_D61Q_Y62E (antibody, V domains shown)
VH: B32 VH with E56D, E57G, D61Q, Y62E
VL: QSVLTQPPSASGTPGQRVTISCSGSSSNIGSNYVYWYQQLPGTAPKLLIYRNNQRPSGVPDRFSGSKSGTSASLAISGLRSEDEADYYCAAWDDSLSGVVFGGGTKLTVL
notes: Variant of P06B05
B36: P06B05_D61S_Y62A (antibody, V domains shown)
VH: B32 VH with E56D, E57G, D61S, Y62A
VL: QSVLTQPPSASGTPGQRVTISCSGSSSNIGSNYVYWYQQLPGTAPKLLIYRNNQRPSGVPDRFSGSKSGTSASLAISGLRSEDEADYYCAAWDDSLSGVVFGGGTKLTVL
notes: Variant of P06B05
B37: P06B05_D107S (antibody, V domains shown)
VH: B32 VH with E56D, E57G, D107S
VL: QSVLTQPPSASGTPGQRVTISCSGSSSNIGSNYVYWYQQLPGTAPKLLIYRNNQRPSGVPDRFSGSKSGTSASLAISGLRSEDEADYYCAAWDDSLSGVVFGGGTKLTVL
notes: Variant of P06B05
B38: P06B05_D61Q_Y62S (antibody, V domains shown)
VH: B32 VH with E56D, E57G, D61Q, Y62S
VL: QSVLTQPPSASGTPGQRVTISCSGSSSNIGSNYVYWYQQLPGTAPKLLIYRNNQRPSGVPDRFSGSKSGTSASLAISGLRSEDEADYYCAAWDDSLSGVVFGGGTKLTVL
notes: Variant of P06B05
B39: P06B05_D61S_Y62S (antibody, V domains shown)
VH: B32 VH with E56D, E57G, D61S, Y62S
VL: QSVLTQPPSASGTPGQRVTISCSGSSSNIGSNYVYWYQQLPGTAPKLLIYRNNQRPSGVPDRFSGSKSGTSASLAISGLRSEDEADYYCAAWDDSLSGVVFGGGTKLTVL
notes: Variant of P06B05
B40: P06B05_D107Y (antibody, V domains shown)
VH: B32 VH with E56D, E57G, D107Y
VL: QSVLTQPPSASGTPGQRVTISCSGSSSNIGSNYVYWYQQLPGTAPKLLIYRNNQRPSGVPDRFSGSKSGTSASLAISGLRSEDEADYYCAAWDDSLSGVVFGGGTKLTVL
notes: Variant of P06B05
B41: P06B05_D61A_Y62E (antibody, V domains shown)
VH: B32 VH with E56D, E57G, D61A, Y62E
VL: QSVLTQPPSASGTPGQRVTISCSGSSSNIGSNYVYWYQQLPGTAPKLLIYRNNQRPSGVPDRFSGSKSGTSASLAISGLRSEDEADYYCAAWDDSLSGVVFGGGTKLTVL
notes: Variant of P06B05
B42: P06B05_D61E_Y62E (antibody, V domains shown)
VH: B32 VH with E56D, E57G, D61E, Y62E
VL: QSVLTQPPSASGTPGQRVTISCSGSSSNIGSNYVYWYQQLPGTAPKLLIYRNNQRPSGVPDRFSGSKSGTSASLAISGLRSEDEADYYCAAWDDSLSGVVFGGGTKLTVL
notes: Variant of P06B05
B43: P06B05_D61A_Y62Q (antibody, V domains shown)
VH: B32 VH with E56D, E57G, D61A, Y62Q
VL: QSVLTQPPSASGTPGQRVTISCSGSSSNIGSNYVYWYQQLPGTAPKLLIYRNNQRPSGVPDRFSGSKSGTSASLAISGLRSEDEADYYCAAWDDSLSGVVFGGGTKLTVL
notes: Variant of P06B05
B44: P06B05_D107L (antibody, V domains shown)
VH: B32 VH with E56D, E57G, D107L
VL: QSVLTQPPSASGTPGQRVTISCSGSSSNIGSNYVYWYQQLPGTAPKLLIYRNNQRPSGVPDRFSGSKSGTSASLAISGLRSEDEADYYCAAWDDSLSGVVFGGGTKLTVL
notes: Variant of P06B05
B45: P06B05_D61S_Y62Q (antibody, V domains shown)
VH: B32 VH with E56D, E57G, D61S, Y62Q
VL: not shown
notes: Variant of P06B05

T3 sequence (Q9NZQ7 19-238 limits assumed): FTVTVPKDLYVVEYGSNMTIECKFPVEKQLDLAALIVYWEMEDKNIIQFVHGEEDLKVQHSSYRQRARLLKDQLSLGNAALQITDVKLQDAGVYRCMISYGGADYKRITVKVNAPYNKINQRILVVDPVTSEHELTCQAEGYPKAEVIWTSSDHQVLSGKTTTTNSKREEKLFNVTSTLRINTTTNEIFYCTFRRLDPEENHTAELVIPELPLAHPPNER

For one assay, the target named is T1, human CD47 protein (human, UniProt Q08722 19-139, limits assumed).
T1 construct: Soluble protein used for the KD measurements; construct not described; also called hCD47; CD47 (human)
T1 sequence (Q08722 19-139 limits assumed): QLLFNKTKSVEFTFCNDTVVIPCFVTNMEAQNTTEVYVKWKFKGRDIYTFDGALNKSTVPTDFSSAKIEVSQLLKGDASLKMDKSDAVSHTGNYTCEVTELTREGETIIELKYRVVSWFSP
Put plainly: KD; method not stated.
As to B1, the Kd was found to be 1200 nM.
The molecule B2 returned a Kd of 1.8 nM.
On the same count and under the same terms, with B3 the figure was 497 nM; with B4, 300 nM.
For the molecule B5, the Kd turned out to be 19 nM.
On the same count and under the same terms, the result for B6 reads 154 nM; that for B7, over 1500 nM.
For B8, binding was put at a Kd of 0.86 nM. This counts as sub-nanomolar.
The same measure, in the same setting: with B9 the figure was 20 nM; with B10, 0.69 nM.
The same measure, in the same setting: with B11 the figure was 48 nM; with B12, 2.7 nM; with B13, 103 nM.
On the same count and under the same terms, with B14 the figure was 25 nM; with B15, over 1500 nM.
Take B16: binding was characterised by a dissociation constant (Kd) of 106 nM. This lies in the sub-micromolar range.
On the same count and under the same terms, the result for B17 reads 5.6 nM; that for B18, 1310 nM; that for B19, 28 nM.
On the same count and under the same terms, with B20 the figure was 7 nM; with B21, 241 nM; with B22, 263 nM.
The molecule B23 registered a Kd of 75 nM.
Still for that read-out and setting: the result for B24 reads 97 nM; that for B25, 31 nM; that for B26, 38 nM.
On the same count and under the same terms, the result for B27 reads 8.5 nM; that for B28, 2.9 nM.
B29 returned a Kd of 608 nM.
In the case of B30, the affinity, expressed as Kd, was 132 nM.
For the molecule B31, the Kd was over 1500 nM.

Another assay addresses T2, cynomolgus CD47 protein (cynomolgus monkey, UniProt A0A2K5X523 19-139).
T2 construct: also called cyCD47; Cyno CD47
Put plainly: KD; method not stated.
For the molecule B1, the equilibrium dissociation constant (Kd) is over 1500 nM.
The molecule B2 showed a Kd of 2.5 nM. That is a single-digit nanomolar value.
B3 showed a Kd of 704 nM.
The same measure, in the same setting: the result for B4 reads 520 nM.
On to B5, for which the Kd is 16 nM.
For the molecule B6, the affinity, expressed as Kd, was 198 nM.
The same measure, in the same setting: the result for B7 reads over 1500 nM.
Still for that read-out and setting: with B8 the figure was 1.2 nM; with B9, 23 nM; with B10, 1.3 nM.
Take B11: the affinity, expressed as Kd, was 62 nM.
On the same count and under the same terms, with B12 the figure was 3.3 nM.
Still for that read-out and setting: with B13 the figure was 117 nM.
B14 gave a Kd of 32 nM.
Still for that read-out and setting: with B15 the figure was over 1500 nM.
B16 had a Kd of 120 nM.
As to B17, the Kd worked out at 7.6 nM.
The same measure, in the same setting: the result for B18 reads over 1500 nM; that for B19, 36 nM; that for B20, 9.3 nM.
The same measure, in the same setting: the result for B21 reads 351 nM.
Still for that read-out and setting: with B22 the figure was 371 nM; with B23, 105 nM; with B24, 138 nM.
In turn, B25 registered a Kd of 46 nM.
The same measure, in the same setting: the result for B26 reads 45 nM.
As to B27, binding was characterised by a dissociation constant (Kd) of 11 nM.
The same measure, in the same setting: with B28 the figure was 3.7 nM; with B29, 773 nM.
On the same count and under the same terms, with B30 the figure was 180 nM; with B31, over 1500 nM.

A further assay addresses T3, human PD-L1 protein (human, UniProt Q9NZQ7 19-238).
T3 construct: Soluble protein used for the KD measurements; construct not described; also called hPD-L1; CD274
The assay can be described thus: KD; method not stated.
The molecule B32 came in with a Kd of 69.7 nM.
Same read-out and setting: with B33 the figure was 4.01 nM; with B34, 5.37 nM; with B35, 5.81 nM.
Still for that read-out and setting: the result for B36 reads 6.71 nM; that for B37, 23.9 nM; that for B38, 5.02 nM.
The same measure, in the same setting: the result for B39 reads 6.1 nM.
In turn, B40 gave a Kd of 3.03 nM.
Same read-out and setting: with B41 the figure was 3.28 nM; with B42, 9.49 nM.
Same read-out and setting: the result for B43 reads 5.97 nM.
The same measure, in the same setting: the result for B44 reads 90.2 nM; that for B45, 5.98 nM.

The target of another assay is T4, cynomolgus PD-L1 protein (cynomolgus monkey, UniProt G7PSE7 19-238).
T4 construct: also called cyPD-L1; Cyno PD-L1
T4 sequence (G7PSE7 entry or part of it): as the sequence (Q9NZQ7 19-238 limits assumed) above, with A33T, A34S, S62N, R68Q, Q82R, F173L, T185A, T192I, H215L counted along it
The assay can be described thus: KD; method not stated.
In turn, B32 yielded a Kd of 60.6 nM.
On to B33, for which the Kd was determined as 3.67 nM.
Molecule B34 came in with a Kd of 2.75 nM.
On to B35, for which binding was put at a Kd of 4.43 nM.
On the same count and under the same terms, with B36 the figure was under 1.19 nM.
B37 gave a Kd of 26.3 nM.
On the same count and under the same terms, the result for B38 reads 5.54 nM.
B39 yielded a Kd of 2.15 nM.
Take B40: binding was put at a Kd of 3.23 nM.
Molecule B41 gave a Kd of 3.17 nM. The Kd values of the last two molecules are within 1.5-fold of each other.
On the same count and under the same terms, the result for B42 reads 8.39 nM.
Molecule B43 registered a Kd of 4.96 nM.
Molecule B44 came in with a dissociation constant Kd of 83 nM.
Turning to B45, the Kd was determined as 3.73 nM.

A word on the Kd: it is the equilibrium constant for the complex coming apart. High values mean weaker binding, low ones tighter binding.
